Results from IntAct's records for PubMed 21239581.

B1: Chromosomal replication initiator protein DnaA (Bacillus subtilis), P05648 (parent)
chain: MENILDLWNQALAQIEKKLSKPSFETWMKSTKAHSLQGDTLTITAPNEFARDWLESRYLHLIADTIYELTGEELSIKFVIPQNQDVEDFMPKPQVKKAVKEDTSDFPQNMLNPKYTFDTFVIGSGNRFAHAASLAVAEAPAKAYNPLFIYGGVGLGKTHLMHAIGHYVIDHNPSAKVVYLSSEKFTNEFINSIRDNKAVDFRNRYRNVDVLLIDDIQFLAGKEQTQEEFFHTFNTLHEESKQIVISSDRPPKEIPTLEDRLRSRFEWGLITDITPPDLETRIAILRKKAKAEGLDIPNEVMLYIANQIDSNIRELEGALIRVVAYSSLINKDINADLAAEALKDIIPSSKPKVITIKEIQRVVGQQFNIKLEDFKAKKRTKSVAFPRQIAMYLSREMTDSSLPKIGEEFGGRDHTTVIHAHEKISKLLADDEQLQQHVKEIKEQLK
partner: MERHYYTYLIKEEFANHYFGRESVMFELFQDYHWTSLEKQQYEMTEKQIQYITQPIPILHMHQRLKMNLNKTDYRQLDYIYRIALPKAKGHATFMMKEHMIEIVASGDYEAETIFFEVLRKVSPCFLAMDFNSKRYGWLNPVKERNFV

Variants of: B1
Conditions: with sira_bacsu sirA

Effect of a mutation on the interaction, disrupting interaction:
F49Y
A50T
N47D
